Values of other authors in publication PMC7674454.

Target: calbindin D9k EF2 EF-hand 2 (Bos taurus) (UniProt P02633)
Assay: SPR

Kd: 3 pM
Substance: calbindin D9k EF1 EF-hand 1 (from UniProt P02633)
